Assay results published in patent publication US20220233697A1 (ACCELERON PHARMA, published 2022).

Target: T1, activin A (UniProt P08476 311-426)
T1 construct: also called ActA
T1 sequence (looked up): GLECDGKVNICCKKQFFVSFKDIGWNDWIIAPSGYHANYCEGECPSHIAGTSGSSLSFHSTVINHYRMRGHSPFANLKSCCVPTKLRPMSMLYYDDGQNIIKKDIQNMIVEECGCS
Assay: Biacore, ligand coupled, receptor flowed (table reproduced from WO2006/012627)

B1: Soluble ActRIIB-Fc K55A (Fc fusion, UniProt Q13705 19-119, looked up)
chain: SGRGEAETRECIYYNANWELERTNQSGLERCEGEQDARLHCYASWANSSGTIELVKKGCWLDDFNCYDRQECVATEENPQVYFCCCEGNFCNERFTHLPEA
notes: not shown: Fc domain, not specified
B1: binds.
